Measurements taken from the supplement of paper PMC10567573.

B1: FBXO39 (parent)
chain: PSRVHASEVESAVWYVKKFGRYLE
B2: MNAT1 (parent)
chain: LEEALYEYQPLQIETYGPHVPELE

Variants of: B1
Assay: protein stability index of a GFP-peptide fusion (GPS, HEK-293T) (PSI 1-6); higher = more stable
Settings: c terminus: a fixed tail appended
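Also: lentivirally expressed fusions sorted by FACS into six bins by GFP to DsRed ratio, PSI derived from sequencing read proportions per bin multiplied by bin number.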

Question: Which protein stability index does the source give for PSPVHASEVESAVWYVKKFGRYLE here?
Answer: 2.49

Question: Which protein stability index does the source give for PSAVHASEVESAVWYVKKFGRYLE here?
Answer: 2.04

Question: Which protein stability index does the source give for PSGVHASEVESAVWYVKKFGRYLE here?
Answer: 2.29

Question: Which protein stability index does the source give for PSQVHASEVESAVWYVKKFGRYLE here?
Answer: 2.46

Question: With PSEVHASEVESAVWYVKKFGRYLE as the variant, how does the protein stability index read?
Answer: 2.04

Question: For PSNVHASEVESAVWYVKKFGRYLE, which protein stability index is on record?
Answer: 2.19

Question: For PSSVHASEVESAVWYVKKFGRYLE, which protein stability index is on record?
Answer: 2.1

Question: For PSVVHASEVESAVWYVKKFGRYLE, which protein stability index is on record?
Answer: 2.36

Question: For PSMVHASEVESAVWYVKKFGRYLE, which protein stability index is on record?
Answer: 2.54

Question: For PSFVHASEVESAVWYVKKFGRYLE, which protein stability index is on record?
Answer: 1.49

Question: Which protein stability index does the source give for PSDVHASEVESAVWYVKKFGRYLE here?
Answer: 2.9

Question: For PSYVHASEVESAVWYVKKFGRYLE, which protein stability index is on record?
Answer: 1.58

Question: Which protein stability index does the source give for PSCVHASEVESAVWYVKKFGRYLE here?
Answer: 1.88

Question: Which protein stability index does the source give for PSKVHASEVESAVWYVKKFGRYLE here?
Answer: 1.83

Question: For PSIVHASEVESAVWYVKKFGRYLE, which protein stability index is on record?
Answer: 2.18

Question: With PSLVHASEVESAVWYVKKFGRYLE as the variant, how does the protein stability index read?
Answer: 1.72

Question: Which protein stability index does the source give for PSTVHASEVESAVWYVKKFGRYLE here?
Answer: 3.32

Question: Which protein stability index does the source give for PSHVHASEVESAVWYVKKFGRYLE here?
Answer: 1.98

Question: With PSWVHASEVESAVWYVKKFGRYLE as the variant, how does the protein stability index read?
Answer: 2.4

Question: With PSRFHASEVESAVWYVKKFGRYLE as the variant, how does the protein stability index read?
Answer: 1.54

Question: For PSRHHASEVESAVWYVKKFGRYLE, which protein stability index is on record?
Answer: 2.25

Question: For PSRWHASEVESAVWYVKKFGRYLE, which protein stability index is on record?
Answer: 2.06

Question: With PSRLHASEVESAVWYVKKFGRYLE as the variant, how does the protein stability index read?
Answer: 2.22

Question: Which protein stability index does the source give for PSRPHASEVESAVWYVKKFGRYLE here?
Answer: 1.92

Question: For PSRSHASEVESAVWYVKKFGRYLE, which protein stability index is on record?
Answer: 1.58

Question: Which protein stability index does the source give for PSRMHASEVESAVWYVKKFGRYLE here?
Answer: 1.97

Question: Which protein stability index does the source give for PSRYHASEVESAVWYVKKFGRYLE here?
Answer: 1.34

Question: For PSRIHASEVESAVWYVKKFGRYLE, which protein stability index is on record?
Answer: 2.39

Question: For PSRAHASEVESAVWYVKKFGRYLE, which protein stability index is on record?
Answer: 2.29

Question: With PSRCHASEVESAVWYVKKFGRYLE as the variant, how does the protein stability index read?
Answer: 1.49

Question: With PSRGHASEVESAVWYVKKFGRYLE as the variant, how does the protein stability index read?
Answer: 2.19

Question: Which protein stability index does the source give for PSRDHASEVESAVWYVKKFGRYLE here?
Answer: 2.52

Question: With PSREHASEVESAVWYVKKFGRYLE as the variant, how does the protein stability index read?
Answer: 2.52

Question: Which protein stability index does the source give for PSRTHASEVESAVWYVKKFGRYLE here?
Answer: 1.65

Question: For PSRNHASEVESAVWYVKKFGRYLE, which protein stability index is on record?
Answer: 2.13

Question: With PSRQHASEVESAVWYVKKFGRYLE as the variant, how does the protein stability index read?
Answer: 2.21

Question: Which protein stability index does the source give for PSRRHASEVESAVWYVKKFGRYLE here?
Answer: 1.8

Question: Which protein stability index does the source give for PSRKHASEVESAVWYVKKFGRYLE here?
Answer: 1.63

Question: With PHRVHASEVESAVWYVKKFGRYLE as the variant, how does the protein stability index read?
Answer: 1.76

Question: With PFRVHASEVESAVWYVKKFGRYLE as the variant, how does the protein stability index read?
Answer: 1.64

Question: With PVRVHASEVESAVWYVKKFGRYLE as the variant, how does the protein stability index read?
Answer: 1.46

Question: Which protein stability index does the source give for PWRVHASEVESAVWYVKKFGRYLE here?
Answer: 1.89

Question: Which protein stability index does the source give for PMRVHASEVESAVWYVKKFGRYLE here?
Answer: 2.08

Question: For PTRVHASEVESAVWYVKKFGRYLE, which protein stability index is on record?
Answer: 2.31

Question: With PYRVHASEVESAVWYVKKFGRYLE as the variant, how does the protein stability index read?
Answer: 2.48

Question: With PARVHASEVESAVWYVKKFGRYLE as the variant, how does the protein stability index read?
Answer: 1.71

Question: With PERVHASEVESAVWYVKKFGRYLE as the variant, how does the protein stability index read?
Answer: 2.29

Question: For PNRVHASEVESAVWYVKKFGRYLE, which protein stability index is on record?
Answer: 2.51

Question: For PPRVHASEVESAVWYVKKFGRYLE, which protein stability index is on record?
Answer: 2.05

Question: With PKRVHASEVESAVWYVKKFGRYLE as the variant, how does the protein stability index read?
Answer: 2.67

Question: For PRRVHASEVESAVWYVKKFGRYLE, which protein stability index is on record?
Answer: 1.82

Question: For PGRVHASEVESAVWYVKKFGRYLE, which protein stability index is on record?
Answer: 1.94

Question: For PLRVHASEVESAVWYVKKFGRYLE, which protein stability index is on record?
Answer: 1.63

Question: Which protein stability index does the source give for PIRVHASEVESAVWYVKKFGRYLE here?
Answer: 2.33

Question: Which protein stability index does the source give for PDRVHASEVESAVWYVKKFGRYLE here?
Answer: 2.19

Question: For PQRVHASEVESAVWYVKKFGRYLE, which protein stability index is on record?
Answer: 2.18

Question: Which protein stability index does the source give for QSRVHASEVESAVWYVKKFGRYLE here?
Answer: 3.14

Question: For VSRVHASEVESAVWYVKKFGRYLE, which protein stability index is on record?
Answer: 1.7

Question: For GSRVHASEVESAVWYVKKFGRYLE, which protein stability index is on record?
Answer: 2.83

Question: With MSRVHASEVESAVWYVKKFGRYLE as the variant, how does the protein stability index read?
Answer: 1.87

Question: With ESRVHASEVESAVWYVKKFGRYLE as the variant, how does the protein stability index read?
Answer: 1.84

Question: Which protein stability index does the source give for HSRVHASEVESAVWYVKKFGRYLE here?
Answer: 2.06

Question: With ASRVHASEVESAVWYVKKFGRYLE as the variant, how does the protein stability index read?
Answer: 2.45

Question: Which protein stability index does the source give for LSRVHASEVESAVWYVKKFGRYLE here?
Answer: 2.13

Question: For KSRVHASEVESAVWYVKKFGRYLE, which protein stability index is on record?
Answer: 2.21

Question: For DSRVHASEVESAVWYVKKFGRYLE, which protein stability index is on record?
Answer: 2.08

Question: For NSRVHASEVESAVWYVKKFGRYLE, which protein stability index is on record?
Answer: 1.72

Question: For YSRVHASEVESAVWYVKKFGRYLE, which protein stability index is on record?
Answer: 1.63

Question: With SSRVHASEVESAVWYVKKFGRYLE as the variant, how does the protein stability index read?
Answer: 1.52

Question: With RSRVHASEVESAVWYVKKFGRYLE as the variant, how does the protein stability index read?
Answer: 1.71

Question: For FSRVHASEVESAVWYVKKFGRYLE, which protein stability index is on record?
Answer: 1.66

Question: With CSRVHASEVESAVWYVKKFGRYLE as the variant, how does the protein stability index read?
Answer: 1.82

Question: For ISRVHASEVESAVWYVKKFGRYLE, which protein stability index is on record?
Answer: 1.83

Question: Which protein stability index does the source give for TSRVHASEVESAVWYVKKFGRYLE here?
Answer: 2.01

Question: Which protein stability index does the source give for WSRVHASEVESAVWYVKKFGRYLE here?
Answer: 2.5

Variants of: B2
Assay: as above
Settings: c terminus: a fixed tail appended

Question: For LEEALYEYQPLQIETYGPHVPEFE, which protein stability index is on record?
Answer: 2.87

Question: For LEEALYEYQPLQIETYGPHVPEQE, which protein stability index is on record?
Answer: 2.98

Question: Which protein stability index does the source give for LEEALYEYQPLQIETYGPHVPEGE here?
Answer: 3.55

Question: With LEEALYEYQPLQIETYGPHVPEAE as the variant, how does the protein stability index read?
Answer: 3.56

Question: With LEEALYEYQPLQIETYGPHVPESE as the variant, how does the protein stability index read?
Answer: 3.48

Question: Which protein stability index does the source give for LEEALYEYQPLQIETYGPHVPEKE here?
Answer: 3.59

Question: For LEEALYEYQPLQIETYGPHVPEPE, which protein stability index is on record?
Answer: 3.19

Question: For LEEALYEYQPLQIETYGPHVPEWE, which protein stability index is on record?
Answer: 2.84

Question: Which protein stability index does the source give for LEEALYEYQPLQIETYGPHVPEEE here?
Answer: 4.12

Question: For LEEALYEYQPLQIETYGPHVPECE, which protein stability index is on record?
Answer: 3.16

Question: Which protein stability index does the source give for LEEALYEYQPLQIETYGPHVPEIE here?
Answer: 2.53

Question: With LEEALYEYQPLQIETYGPHVPETE as the variant, how does the protein stability index read?
Answer: 2.6

Question: Which protein stability index does the source give for LEEALYEYQPLQIETYGPHVPERE here?
Answer: 3.99

Question: Which protein stability index does the source give for LEEALYEYQPLQIETYGPHVPEYE here?
Answer: 2.89

Question: With LEEALYEYQPLQIETYGPHVPEDE as the variant, how does the protein stability index read?
Answer: 4.02

Question: Which protein stability index does the source give for LEEALYEYQPLQIETYGPHVPEME here?
Answer: 3.2

Question: For LEEALYEYQPLQIETYGPHVPEVE, which protein stability index is on record?
Answer: 2.81

Question: For LEEALYEYQPLQIETYGPHVPEHE, which protein stability index is on record?
Answer: 3.29

Question: With LEEALYEYQPLQIETYGPHVPENE as the variant, how does the protein stability index read?
Answer: 3.34
